Measured values taken from patent publication US6682736.

Legend:
CTLA-4-Ig(G4) [1] = target: T1, CTLA-4-Ig(G4) (UniProt P16410 37-161, limits assumed); assay: competition ELISA: CTLA-4-Ig(G4) to coated B7.2-Ig(G1); n = 3
T1 construct: Bought (Repligen, Inc.); not shown: IgG4 portion of the bought fusion protein

[2] = target: T2, CTLA-4-IgG1 fusion protein (human); assay: BIAcore; CTLA-4-Ig on chip, 504.5 RU
T2 construct: Mature extracellular domain of human CTLA-4 fused to human IgG1 constant domains, no hinge, covalent dimer through cysteine 120; The oncostatin M signal peptide is cleaved; also called OM-CTLA4-IgG1 Fusion Protein; CTLA-4-Ig fusion protein
T2 sequence (chain, as listed by the source): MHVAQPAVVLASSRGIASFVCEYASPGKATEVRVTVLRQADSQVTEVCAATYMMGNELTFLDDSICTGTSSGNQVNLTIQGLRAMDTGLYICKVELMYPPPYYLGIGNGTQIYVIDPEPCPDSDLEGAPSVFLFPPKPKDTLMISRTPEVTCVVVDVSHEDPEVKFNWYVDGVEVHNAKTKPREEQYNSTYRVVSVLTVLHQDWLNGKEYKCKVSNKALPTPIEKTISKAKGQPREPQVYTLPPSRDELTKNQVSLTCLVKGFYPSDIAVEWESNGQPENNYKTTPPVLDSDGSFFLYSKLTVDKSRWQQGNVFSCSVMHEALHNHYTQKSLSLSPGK

[3] = target: T2, CTLA-4-IgG1 fusion protein; assay: BIAcore; CTLA-4-Ig on chip, 878.7 RU
CTLA-4-Ig(G4) [4] = target: T1, CTLA-4-Ig(G4); assay: competition ELISA: CTLA-4-Ig(G4) to coated B7.1-Ig(G1); n = 2
[5] = target: T2, CTLA-4-IgG1 fusion protein; assay: BIAcore; CTLA-4-Ig on chip, 457.2 RU
[6] = target: T2, CTLA-4-IgG1 fusion protein; assay: BIAcore; CTLA-4-Ig on chip, 397.8 RU
[7] = target: T2, CTLA-4-IgG1 fusion protein; assay: selectivity ELISA, antibody 1 µg/ml; CTLA-4/Ig over CD28/Ig; n = 3
[8] = target: T2, CTLA-4-IgG1 fusion protein; assay: selectivity ELISA, antibody 1 µg/ml; CTLA-4/Ig over B7.2/Ig; n = 3
[9] = target: T2, CTLA-4-IgG1 fusion protein; assay: selectivity ELISA, antibody 1 µg/ml; CTLA-4/Ig over CD44/Ig; n = 3
CTLA-4-Ig(G1) = target: T3, CTLA-4-Ig(G1) (UniProt P16410 37-161, limits assumed); assay: IGEN ECL bead assay, antibody 1 µg/ml; CTLA-4-Ig(G1) over CD28-Ig(G1); n = 2
T3 construct: also called CTLA4 (IGEN assay); not shown: IgG1 portion
T3 sequence (P16410 37-161 limits assumed): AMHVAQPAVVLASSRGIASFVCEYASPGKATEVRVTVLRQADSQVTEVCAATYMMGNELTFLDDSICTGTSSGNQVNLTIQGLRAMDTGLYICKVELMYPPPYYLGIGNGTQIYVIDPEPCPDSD

T1 sequence (P16410 37-161 limits assumed): as above

B1: 4.10.2 (antibody, human IgG2, V domains shown)
VH: GVVQPGRSLRLSCVASGFIFSSHGIHWVRQAPGKGLEWVAVIWYDGRNKDYADSVKGRFTISRDNSKNTLYLQMNSLRAEDTAVYYCARVAPLGPLDYWGQGTLVTVSS
VL: SPGTLSLSPGERATLSCRASQSISSNFLAWYQQKPGQAPRLLIYRPSSRATGIPDSFSGSGSGTDFTLTISRLEPEDFALYYCQQYGTSPFTFGPGTKVDIKR
notes: Fully human IgG2 kappa (hybridoma); also called CT-4.10.2
For B1, the IC50 (CTLA-4-Ig(G4) [1]) was 1.5 nM, the Ka [2] was 2.2e+09 M⁻¹ and the Kd [2] was 0.455 nM. It also gave a koff [2] of 0.00043 s⁻¹, a kon [2] of 940000 M⁻¹ s⁻¹ and a Ka [3] of 3.9e+09 M⁻¹. For the same binder, the Kd [3] was 0.254 nM, the koff [3] was 0.000253 s⁻¹ and the kon [3] was 1e+06 M⁻¹ s⁻¹. For the same binder, the IC50 (CTLA-4-Ig(G4) [4]) was 3.39 nM, the Ka [5] was 1.4e+09 M⁻¹ and the Kd [5] was 0.721 nM. For the same binder, the koff [5] was 0.000505 s⁻¹ and the kon [5] was 700000 M⁻¹ s⁻¹.

B2: 2.1.3 (antibody, human IgG4, V domains shown)
VH: SGPGLVKPSQILSLTCTVSGGSISSGGHYWSWIRQHPGKGLEWIGYIYYIGNTYYNPSLKSRVTISVDTSKNQFSLKLSSVTAADTAVYYCARDSGDYYGIDVWGQGTTVTVSS
VL: SPDFQSVTPKEKVTITCRASQSIGSSLHWYQQKPDQSPKLLIKYASQSFSGVPSRFSGSGSGTDFTLTINSLEAEDAATYYCHQSSSLPLTFGGGTKVEIKR
B2 showed a Ka [2] of 9e+08 M⁻¹, a Kd [2] of 1.12 nM and a koff [2] of 0.00131 s⁻¹. The kon [2] was 1.17e+06 M⁻¹ s⁻¹, the Ka [3] was 1.3e+09 M⁻¹ and the Kd [3] was 0.772 nM. It also gave a koff [3] of 0.000959 s⁻¹, a kon [3] of 1.24e+06 M⁻¹ s⁻¹ and a Ka [6] of 9e+08 M⁻¹. For the same binder, the Kd [6] was 1.17 nM, the koff [6] was 0.0013 s⁻¹ and the kon [6] was 1.11e+06 M⁻¹ s⁻¹.

B3: 3.1.1 (antibody, V domains shown)
VH: GVVQPGRSLRLSCAASGFTFSSYGMHWVRQAPGKGLEWVAVIWYDGSNKYYADSVKGRFTISRDNSKNTLYLQMNSLRAEDTAVYYCARGARIITPCMDVWGQGTTVTVSS
VL: QSPSSLSASVGDRVTITCRASQSINTYLIWYQQKPGKAPNFLISATSILQSGVPSRFRGSGSGTNFTLTINSLHPEDFATYYCQQSYSTPFTFGPGTKVDIKR
notes: also called CT-3.1.1
B3 was tested, and the “selectivity ratio CTLA4/CD28” value [7] was > 500 :1, the “selectivity ratio CTLA4/B7.2” value [8] was > 500 :1 and the “selectivity ratio CTLA4/CD44” value [9] was > 500 :1. The IC50 (CTLA-4-Ig(G4) [1]) was 0.45 nM, the Ka [2] was 5.5e+09 M⁻¹ and the Kd [2] was 0.182 nM. For the same binder, the koff [2] was 0.000172 s⁻¹, the kon [2] was 950000 M⁻¹ s⁻¹ and the Ka [3] was 1.07e+10 M⁻¹. The Kd [3] was 0.093 nM, the koff [3] was 9.6e-05 s⁻¹ and the kon [3] was 1.04e+06 M⁻¹ s⁻¹. For the same binder, the “selectivity ratio CTLA4/CD28” value (CTLA-4-Ig(G1)) was > 500 :1, the Ka [6] was 4.4e+09 M⁻¹ and the Kd [6] was 0.228 nM. It also gave a koff [6] of 0.000207 s⁻¹, a kon [6] of 910000 M⁻¹ s⁻¹ and an IC50 (CTLA-4-Ig(G4) [4]) of 0.63 nM. The Ka [5] was 4.4e+09 M⁻¹, the Kd [5] was 0.227 nM and the koff [5] was 0.000165 s⁻¹. The kon [5] was 730000 M⁻¹ s⁻¹.
